Assay results: the nanobody polyreactivity screen of Harvey et al. (2022)

Assay: yeast display, Sf9 membrane polyspecificity reagent, FACS + sequencing; frameworks hold sequencing errors
Procedure, shortened: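 Genes from sorted yeast were amplified by colony PCR, read by MiSeq 2 × 250 sequencing and filtered on CDR length. These cells carried a synthetic nanobody library in Saccharomyces cerevisiae BJ5465 and were sorted by FACS into low and high (top ~1%) gates on anti-HA and streptavidin fluorescence. Polyreactivity is labelled according to the gate of origin.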

Row | Sequence | polyreactivity (PSR sort gate)
1 | QVLIVESGGGLVQAGGSLRLSCADSGLTLAHYTMGWYRQSPGKERELVAAITFSGGRTYYADSVKGRFTISRDNAKNTVYLQMNSLKPEDTAVYYCNDEYQWGGYGYDYWGQGTQVTVSS | low polyreactivity
2 | QVQLVASGGGLVLAGGILRLSCAASGSTFVSNALGWYRLAPGKERALVAVITFRGGTTYYADSVKGRFTISRDNAKNTVYLQMNSLKPEDTAGYYCAARSYQYSYSFYWGQGTQVTVSS | high polyreactivity
3 | QVQLVESGGGLVQAGGSLRLSCAASGSIFYVYAMGWYRQAPGKEREMVAAINTSGGSTFYADSVKGRFTISRDNAKNTVYLQMNSLKPEETAVYYCAAERYRYRSTDTMVYWGQGTQVTVSS | low polyreactivity
4 | QVQLVESGGGLVQAGGSLRLSCAASGLTFGRYAMGWYRQAPGKERELVAVINRGGNTYYADSVKGRFTISRDNAKNTVYLQMNSLKPEDTAVYYCAADYLRWAGRYFSWDYDYWGQGTQVTVSS | high polyreactivity
5 | QVQLVESAGGLVQAGGSLSLICAASGIIFGGNAMGWSRQAPGKERELVAAISRSGGSTYYADSVKGRFTISRDNAKNTVYLQMTSLKPEDTAVYYCNAYYRYFRSIYDSCGQGTQVTVSS | high polyreactivity
6 | QLQLVESCGGLFQAGGSLRLSCADSGSTFGDHAMGCYRQAPGKERELVAVITSDTSTYYADSLKWRLTISRDNAKNTVYLQMNSMKPEDTAVYYCAADWGGLWFWYEYWGQGTQVTVSS | low polyreactivity
7 | QVQLVESGGGLVQAGGSLRLSCAASGITFPGTVMGWYRQAPGKERELVAAISTSGGSTYYADSVKGRFTISRDNAKNTVYLQMNSLKPEDTAVYYCARQYIRSSYGYWGQGTQVTVSS | low polyreactivity
8 | QVQLVESGGGLVQAGGSLRLSCAASGRTFQYYAMGWYRPAPGKERELVAALSSRGGSTYYADSVKGRFTISRDNAKNTVSLQMNSLKPEDTAVYYCAAYVLPRQRVRSDYWGQGTQVTVTS | high polyreactivity
9 | QVQLVESGGGLVQAGGSLRLSCAASGGTSYAYTMGWYRQAPGKERELVAAISGSTGSTYYADSVKGRFTISRDNAKNTVYLQMNSLKPEDTAVYYCNADISSLYSLSWFRYWYDYWGQGTQVTVSS | low polyreactivity
10 | QVQLVESGGGLVQAGGSLRLSCAASGRIFLYYNMGWYRQAPGKERELVADITWRGGSTYYADSVKGRFTISRDNAKNTVYLQMNSLKPEDTAVYYCNAVSVSSKRSDYWGQGTQVTVSS | low polyreactivity
11 | QVQLVESGGGLVQAGGSLRLSCAASGFIFSPYDMGWYRQAPGKERELVAAISWRTGSTYYADSVKGRFTISRDNAKNTVYLQMNSLKPEDTAVYYCAARFIWSSYGRYDYWGQGTQVTVSS | high polyreactivity
12 | QVQLVESGGGLLQAGGILRLSCAASGFTFKYYVMGWYRQAPGKERELDAAITSSGSTYYADSVKGRFTISRDNAKNTVYLQINRLKPEDSAVYYCAAEGQSWQRWRYNYWGQGTQVTVSS | high polyreactivity
13 | QVQIVESGGGLVQAGGSLRLSCAASGSTFLSNAMGWYRQAPGKERELVATISFSGATYADSVKGRFTIARDNAKNTVYLQMNSLKPEDTAVYYCNRATLNYSGKGDTAYDYWGQGTQVTVSS | low polyreactivity
14 | QVHLVESGGGLVQAGGSLRLSCHASGIIFKTYAMGWYRQPPGKERELVAAISSGGTTYYADSVKGRFTISRDNAKNTVYLQMNSLKPEDTAVYYCAARGYRSGGGYNYWGQGTQVTVSS | high polyreactivity
15 | QVQHVESGGGLVQAGGSLRLSCAASGFIFARNAMGWYRQAPGKERELVAAITWSGGSTYADSVKGRFTISRDNAKNTVYLQMNSLKPEDTAVYYCAADSYPAYLGFVGFDYWGQGTQVTVSS | low polyreactivity
16 | QVQLVESCGGLVQAGGSLRLSCADSGRTFGSYAMGWYRQATRKDRELVASISRSGGTTYYADSVKGRFTLSRDNAKNTVYLQMYSQKPEDTAVYYCAAQYVRYGLYYWGQGTQVTVSS | high polyreactivity
17 | QVQLVESGGGLVQAGGSLRLSGAASGSIFYSNAMGWSRQAPGKERELVAAITVRGGSTYYADSVKGRFTISRDNAKNTVYLQMNSLKQEDTAVYYCAAEYVSYSSYIYGYLGQGTQVTVSS | high polyreactivity
18 | QVQLVESGGGLVQAGGSLRLSCAASGIIFAYYARRWYRHAPGKERELVAAISWSGTSTYYADSVKGRFTISRDNAKNTVYLQMNSLKPEDTAVYYCNAYGLYSDMDYWGQGTQVTVSS | high polyreactivity
19 | QVQLVESGGGLVQAGGSLRLSCAASGRTLGIYAMGWYRQAPGKERELVADISRDSSTYYADSVKGRFTISRDNAKNTVYLQKNSLKPEDTAVYYCNADQTPRDVTDWWYDYDYWGQGSQVTVSS | low polyreactivity
20 | QVQLVESGGGLVQAGGSLRLSCAASGSIFYDKAMGWYRQAPGKERELVAVISNSGRTYYADSVKGRFTISRDNAKNTVYLQMNSLKPEDTAVYYCWGQVTQVTVSS | low polyreactivity
21 | QVQLVESGGGLLQAGGSLSLSCAASGGIFYYNAMGRYRQAPRKERELVAANTFSGGSTNYADSVKGRFTISRDNAKNTVYLQMNSLKPEDTAVYYGNARRGYGGGYDYWGQGTQVTVSS | high polyreactivity
22 | QVQLVESGGGLVQAGGSLRLSCAASGSTFRHNAMGWYRQAPGKERELVATIRTSGGTTYYADSVKGRFTISRDNAKNTVYLQMNSLKQEDTAVYYCAAVSYLFLYQGYPIAYPMYYWGQGSQVTVSS | low polyreactivity

Row | Sequence | polyreactivity (PSR sort gate)
23 | QVQLEESGGGIVQAGRSLRLSCAASGITFDANTMGWYRQAPGKERELVAAITGGGSTNYADSVKGRFTISRDNAKNTVYLHMNSPKPEDTAVYYCPADLIYKYNYWGQGTQVTVSS | low polyreactivity
24 | QVQLVESGGGLVQAGGSLRLSCAASGITFEGYAMGWYRQAPGKEREFVAAITGSGSTTYYADSVKGRFTITRDNAKNTVYLQMNSLKPEDTAVYYCVAYVGSTYSAPEYYWGQGTQVTVSS | low polyreactivity
25 | QVQLVESGGGLVQAGGSLRLRCAAYGSNFVLNAMGLDRKAPGKERELVAAISRGGASTYYADSVKGRFTIARDNSKNTVYLQMTSLKPEDTAVYYCNASGYGQGVVIYLVLYDYWGQGTQVTVSS | low polyreactivity
26 | QVQLVESGGGLVQAGGSLRLSCDASGSTFRGNAMGWYRQAPGKEREFVASISRRGGRTNYADSVKGRFTISRDNAKNTVYLQMNSVKPEDTAVYYCAATTVPLGDYWGLGTQVTVSS | high polyreactivity
27 | QVQLVESGRGLFQAGGSLRLSCAASGSTFTVNTMGWYRQAPGKERELVDAITKNGANTYYADSVKGRFTISRDNAKNTVYLQMNILKPEDTAVYYCAALYVYGKSYSRWLVELDYWGQGTQVTVSS | low polyreactivity
28 | QVQLVESGGGLVQAGGSLRLSCAASGSIFAYYSMGWYIQAPGKERELVAAISWSGGSTYYADSVKGRFTISRDNAKNTVYLQMNSLKPEDTAVYYCNVARSYSKMYWGQGTQVTVSS | high polyreactivity
29 | QVQLVESGGGLVQAGGSLRLSCAASGRIFSRYAKGWYRQAPGKERELVAAINKSGGSTYYADSVKGRFTISRDNAKNTVYLQMNSLKPEDTAVYYCNAVYYWYKGDYWGQGTQVTVSS | high polyreactivity
30 | QVQHVESGGGLVQAGGSLRLTCAASGNTFWWNAMGWYRQAPGKERELVAAISWRGGSTYYADSVKGRFTISRDNAKNTVYLQMKCLKPEDTAVYYCAKRNYHDESVVEEDYWGQGTQVTVSS | low polyreactivity
31 | QVQLVESGGGLVQAGGSLRLSCAASGGILVFYAMGWYRQAPGKERELVAAITKRGTSTYYADSVKGRFTISRDIEKNTVYLQMNSLKPEDTAVYYCAAESIPYYRYDYWGQGSQVTVSS | low polyreactivity
32 | QVQLVESGGGLVQAGGSLRLTCDASGSTFYHNAMGWYRQAPGKERELVAAITTSGGSTYYADSVKWRFTISRDNAKNTVYLQMNSLKPEDSAVYYCNVYRPYLAPYDYWGQGTQVTVSS | low polyreactivity
33 | QVQLVESGGGLVQAGGSLRLSCAASGRTFATNAMGWYRQAPGKERELVAAISRRGASTYYADSVKGRFTISRDNAKNTVYLQMNSLKPEDTAVYYCAARQYIRGARIYDYWGQGTQVTVSS | high polyreactivity
34 | QVQLVESGGGLVQAGGSLRLSCAASGFIFSRYAMGWYRQAPGKEREFVAANSWSGGRTYYADSVKGRFTISRDNAKNTVYLQMNSLKPEDTAVYFCAARGYYPARHGTGGYWGQGTQVTVSS | high polyreactivity
35 | QVQLVESGGGLVQAGGSLRLSCAASGSIGYYAMGWYRQAPGKERELVAVISRSGTGTSYADSVKGRFTISRDNAKNTVYSQMTSLKPEDTAVYYCNAETYTYRYENDYWGQGTQVTVSS | high polyreactivity
36 | QVQLVESGGCLEQAGGSLRLSCAASGFTFVSNDMGWYRQAPGKERELVAAISQGGGSTYYADSVKGRFTISRDNAKNTVYLQMNSLKPEDTAVYYCAAEDVYFGYDYWGQGTQVTVSS | low polyreactivity
37 | QVQLVESGGGLVQAGGSLRLSCAASGFTFWWYTMGWYRQAPGKERELVAAITWSGSRTYYADSVKGRFTISRDNAKNTVYLQMNSLKPEDTAVYYCAATYLKVHGEYDYWGQGTQVTVSS | high polyreactivity
38 | QVQLVESGGGLVQAGGSLRLSCAASGLIFYWYTMGWYRQAPGKEREFVAAITWGGGGTYYADSVKGRFTISRDKAKNTVYLQMNSLKPEDTAVYYCAAEEQVVKAHGDYWGQGTQVTVSS | low polyreactivity
39 | QVQLVESGGGLVQAGRSLRLSCAASGSISRFYAMGWYRQAPAKERELVGANSWSGGRTYYADSVKGRFTISRDNAKNTVYLQMNSLKPEDTAVYYCNAFRRYNDEDYWGQGTQVTVSS | high polyreactivity
40 | QVQLVESGGGLVQAGGSLRLSCAASGSTFGTYAMGWYRQAPGKERELVASIDNSTSGTYYADSVKGRFTISRDNAKNTVYLQMNSLKPEDTAVYYCAATPLVDGSSIPREGDYWGQGTQVTVSS | low polyreactivity
41 | QVQLQESGCGLVQAGGSLRLTCAASGSISYPRTMGWSRQAPGKEREFVAGIGVGGTTYYADSVIGRFTISRDNAKNTVYLQMNSLKPEDTAVYYCAVYSGDDYYHDYWGQGTQVTVSS | low polyreactivity
42 | QVQLVESGGGLVQAGGSLRLSCAASGSIFAHYTMGWYRQAPGKERELVAVISRSGARTYYADSVKGRFTISRDNAKNTVYLQMNSLKPEDTAVYYCAATWGSVQKGTYYYWGQGTQVTVSS | low polyreactivity
43 | QVQRVESGGGLVQAGGTLRLSCAASGFIFGYYAMGWSRQAPGKERELVAAISRSGGRTYYADSVKGRFTISRANAKNTVYLQLNSLKPEDTAVYYCAKSGYQYADDMDYLGQGTQVTVSS | high polyreactivity
